From PMC3305447, “A Peptidoglycan Fragment Triggers β-lactam Resistance in Bacillus licheniformis” (PLoS Pathogens, 2012) come the findings set out here.

As a reminder, the Kd is the free concentration of one partner at which half of the binding sites on the other are occupied at equilibrium, for simple one-to-one binding. One may read the IC50 as the midpoint of a concentration-inhibition curve.

Assay [1] addresses T1, MecI (Staphylococcus aureus, UniProt P68261).
T1 construct: full-length with C-terminal His6 (pET22b), recombinant, purified; homodimer; 15N-labelled for NMR
As to the kind of experiment: NMR titration, 1H-15N SOFAST-HMQC chemical shifts. It counts as binding.

In assay [2] the target is T1, MecI. As to the kind of experiment: agarose-gel EMSA, dissociation of repressor-operator DNA complex. The class given is binding. On the technique in general: Mobility shift assays separate free from complexed probe on a gel.
Target sequence in this assay (P68261 1-122): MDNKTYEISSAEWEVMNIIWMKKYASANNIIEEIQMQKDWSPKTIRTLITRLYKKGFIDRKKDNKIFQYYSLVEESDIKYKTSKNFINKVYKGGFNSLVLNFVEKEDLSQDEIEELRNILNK
Assay [3] concerns the target Bacillus licheniformis 749/I BlaI repressor (BlaI-His) (Bacillus licheniformis 749/I) (UniProt P06555).
Assay [4] addresses Staphylococcus aureus MecI repressor (MecI-His) (Staphylococcus aureus ATCC 43300) (UniProt P68261).
Assay [5] shares this target. The assay is described as follows: native gel or EMSA.

Sequence of Staphylococcus aureus MecI repressor (MecI-His) (Staphylococcus aureus ATCC 43300) (P68261 whole entry): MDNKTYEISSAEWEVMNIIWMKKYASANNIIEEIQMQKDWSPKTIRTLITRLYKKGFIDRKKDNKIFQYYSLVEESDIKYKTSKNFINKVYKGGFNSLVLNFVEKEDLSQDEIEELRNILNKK
Sequence of Bacillus licheniformis 749/I BlaI repressor (BlaI-His) (Bacillus licheniformis 749/I) (P06555 whole entry): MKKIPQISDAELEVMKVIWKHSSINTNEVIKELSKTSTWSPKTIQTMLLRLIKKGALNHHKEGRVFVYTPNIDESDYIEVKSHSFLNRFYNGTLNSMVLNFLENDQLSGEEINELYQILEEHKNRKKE

In the case of `NCCCC[C@H](NC(=O)CC[C@@H](N)C(=O)O)C(=O)O` [dipeptide 2, γ-D-Glu-L-Lys], the Kd on MecI [1] amounted to 8000 ± 2000 µM. The molecule also showed an IC50 against MecI [2] of roughly 2000 µM.

In assay [3], γ-D-Glu-m-A2pm dipeptide had a concentration of dipeptide allowing the displacement of 50% of bound BlaI from its nucleic operator (agarose gel EMSA titration, 10 to 50 nmol dipeptide in 20 µl) of 2 mM.

In turn, γ-D-Glu-L-Lys dipeptide had a concentration of dipeptide allowing the displacement of 50% of bound MecI from its nucleic operator (agarose gel EMSA titration, 10 to 50 nmol dipeptide in 20 µl) in assay [4] of 2 mM. This molecule yielded a Kd in assay [5] of 2000 µM.
